In test [1] the target is T1, outer-membrane usher FimD (Escherichia coli, UniProt P30130 46-878).
T1 sequence: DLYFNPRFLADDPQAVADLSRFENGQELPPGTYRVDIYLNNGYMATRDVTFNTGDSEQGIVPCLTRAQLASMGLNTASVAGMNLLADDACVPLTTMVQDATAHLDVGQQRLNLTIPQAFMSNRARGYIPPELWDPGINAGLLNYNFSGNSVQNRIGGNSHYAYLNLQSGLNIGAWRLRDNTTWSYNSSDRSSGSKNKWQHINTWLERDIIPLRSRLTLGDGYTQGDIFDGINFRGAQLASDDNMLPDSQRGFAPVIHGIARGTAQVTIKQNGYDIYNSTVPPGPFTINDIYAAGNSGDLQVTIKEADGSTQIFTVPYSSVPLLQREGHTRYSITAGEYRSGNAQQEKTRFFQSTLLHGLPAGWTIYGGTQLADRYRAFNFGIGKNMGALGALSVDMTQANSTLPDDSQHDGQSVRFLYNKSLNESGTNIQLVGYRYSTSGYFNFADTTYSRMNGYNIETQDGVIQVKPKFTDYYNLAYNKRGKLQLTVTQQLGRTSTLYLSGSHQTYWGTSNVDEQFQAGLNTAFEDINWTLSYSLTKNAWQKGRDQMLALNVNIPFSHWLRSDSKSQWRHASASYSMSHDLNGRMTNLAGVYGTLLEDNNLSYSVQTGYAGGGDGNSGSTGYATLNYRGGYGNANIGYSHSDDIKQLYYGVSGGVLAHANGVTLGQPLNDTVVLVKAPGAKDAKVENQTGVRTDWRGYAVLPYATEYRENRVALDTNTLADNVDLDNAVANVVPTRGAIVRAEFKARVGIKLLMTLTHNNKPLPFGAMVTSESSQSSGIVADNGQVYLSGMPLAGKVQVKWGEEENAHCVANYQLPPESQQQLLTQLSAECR
Kind of test: cryo-EM structure. The note with it: both partners purified.

For another test, the target named is T2, adhesin FimH (wild type) (Escherichia coli, UniProt P08191 22-300).
T2 construct: also called FimHWT; tip adhesin
T2 sequence (P08191 22-300): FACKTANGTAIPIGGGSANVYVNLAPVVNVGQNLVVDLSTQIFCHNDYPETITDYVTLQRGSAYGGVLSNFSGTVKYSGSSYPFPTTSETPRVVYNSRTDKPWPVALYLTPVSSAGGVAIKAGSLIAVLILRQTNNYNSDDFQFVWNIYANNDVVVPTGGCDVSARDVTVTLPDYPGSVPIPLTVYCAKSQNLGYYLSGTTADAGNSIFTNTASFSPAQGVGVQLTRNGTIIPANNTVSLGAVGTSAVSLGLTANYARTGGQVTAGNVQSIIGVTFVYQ
Kind of test: cryo-EM structure; FimD–FimCH complex, second class of particles in the same purified sample and dataset; ~3.5 Å; map fits PDB 3RFZ. The note with it: both partners purified.

B1: periplasmic chaperone FimC with a C-terminal polyhistidine tag (natural protein)
chain: GVALGATRVIYPAGQKQEQLAVTNNDENSTYLIQSWVENADGVKDGRFIVTPPLFAMKGKKENTLRILDATNNQLPQDRESLFWMNVKAIPSMDKSKLTENTLQLAIISRIKLYYRPAKLALPPDQAAEKLRFRRSANSLTLINPTPYYLTVTELNAGTRVLENALVPPMGESTVKLPSDAGSNITYRTINDYGALTPKMTGVME
notes: also called FimChis; FimCHis; not shown: polyhistidine, C-terminal, kept
On to B1, for which the binding result (in test [1]; with adhesin FimH (wild type)) was “binds” throughout.

These data come from PMC11459180, “Structural basis for adhesin secretion by the outer-membrane usher in type 1 pili” (Proceedings of the National Academy of Sciences of the …, 2024).
